{"source": "paper PMC10786891", "about": "“Massively parallel profiling of RNA-targeting CRISPR-Cas13d”", "binders": {"B1": {"name": "target 1 A1G,G15U (mixed)", "RNA 1": "CACCCGUGCAAAAAUGCAGGGGUCUAAAACUGAGCGGAUAACCUCUCUAUGG", "RNA 2": "GGGAAUGGAUCCACAUCUACGAAUUCGUACCAUAGAUAGGUUAUCCGCUCGCCGAGAUCGGAAGAGCACACGU"}, "B2": {"name": "target 1 A9G,A14U (mixed)", "RNA 1": "B1 RNA 1", "RNA 2": "B1 RNA 2 with U37G, A38U, A43G, G51A"}, "B3": {"name": "target 1 insU 3' of 21,insC 3' of 18 (mixed)", "RNA 1": "B1 RNA 1", "RNA 2": "GGGAAUGGAUCCACAUCUACGAAUUCGUACCUAUACGAGAGGUUAUCCGCUCACCGAGAUCGGAAGAGCACACGU"}, "B4": {"name": "target 1 insC 3' of 14,insA 3' of 12 (mixed)", "RNA 1": "B1 RNA 1", "RNA 2": "B3 RNA 2 with U32A, A33U, U34A, A35G, C36A, G39C, A40G, G42A"}, "B5": {"name": "target 1 insC 3' of 13,insA 3' of 4 (mixed)", "RNA 1": "B1 RNA 1", "RNA 2": "GGGAAUGGAUCCACAUCUACGAAUUCGUACCAUAGAGAGCGUUAUCCGCAUCACCGAGAUCGGAAGAGCACACGU"}, "B6": {"name": "target 1 insU 3' of 12,insU 3' of 7 (mixed)", "RNA 1": "B1 RNA 1", "RNA 2": "B5 RNA 2 with C40G, G41U, C47U, G48C, C49G, A50C"}, "B7": {"name": "target 1 C4A,U19A (mixed)", "RNA 1": "B1 RNA 1", "RNA 2": "B1 RNA 2 with U33A, U37G, C48A, G51A"}, "B8": {"name": "target 1 A1G,C22U (mixed)", "RNA 1": "B1 RNA 1", "RNA 2": "B1 RNA 2 with C30U, U37G"}, "B9": {"name": "target 1 insA 3' of 21,insG 3' of 4 (mixed)", "RNA 1": "B1 RNA 1", "RNA 2": "B5 RNA 2 with U33A, A34U, G35A, A36G, G37A, A38G, G39A, C40G, A50G"}, "B10": {"name": "target 1 A14G,U19A (mixed)", "RNA 1": "B1 RNA 1", "RNA 2": "B1 RNA 2 with U33A, U37G, A38G, G51A"}, "B11": {"name": "target 1 A9G,G12C (mixed)", "RNA 1": "B1 RNA 1", "RNA 2": "B1 RNA 2 with U37G, G40C, A43G, G51A"}, "B12": {"name": "target 1 insC 3' of 13,insG 3' of 11 (mixed)", "RNA 1": "B1 RNA 1", "RNA 2": "B5 RNA 2 with U43G, A44U, U45A, C46U, G48C, C49G, A50C"}, "B13": {"name": "target 1 insA 3' of 22,insU 3' of 1 (mixed)", "RNA 1": "B1 RNA 1", "RNA 2": "GGGAAUGGAUCCACAUCUACGAAUUCGUACACAUAGAGAGGUUAUCCGCUCAUCCGAGAUCGGAAGAGCACACGU"}, "B14": {"name": "target 1 insA 3' of 11,insA 3' of 2 (mixed)", "RNA 1": "B1 RNA 1", "RNA 2": "B5 RNA 2 with C40G, G41U, U42A, A50U, U51C, C52A"}, "B15": {"name": "target 1 insA 3' of 12,insU 3' of 7 (mixed)", "RNA 1": "B1 RNA 1", "RNA 2": "B5 RNA 2 with C40G, G41A, C47U, G48C, C49G, A50C"}, "B16": {"name": "target 1 insA 3' of 17,insA 3' of 15 (mixed)", "RNA 1": "B1 RNA 1", "RNA 2": "B3 RNA 2 with U32A, A33U, U34A, A35G, C36A, G37A, A38G, G39A"}, "B17": {"name": "target 1 C7A,U10G (mixed)", "RNA 1": "B1 RNA 1", "RNA 2": "B1 RNA 2 with U37G, U42G, C45A, G51A"}, "B18": {"name": "target 1 insA 3' of 13,insU 3' of 2 (mixed)", "RNA 1": "B1 RNA 1", "RNA 2": "B5 RNA 2 with C40A, A50U, U51C, C52U"}, "B19": {"name": "target 1 insA 3' of 15,insU 3' of 6 (mixed)", "RNA 1": "B1 RNA 1", "RNA 2": "B5 RNA 2 with G39A, C40G, G48U, C49G, A50C"}, "B20": {"name": "target 1 U8G,U10C (mixed)", "RNA 1": "B1 RNA 1", "RNA 2": "B1 RNA 2 with U37G, U42C, U44G, G51A"}, "B21": {"name": "target 1 insC 3' of 12,insU 3' of 12 (mixed)", "RNA 1": "B1 RNA 1", "RNA 2": "B5 RNA 2 with C40G, G41C, A44U, U45A, C46U, G48C, C49G, A50C"}, "B22": {"name": "target 1 insG 3' of 19,insC 3' of 13 (mixed)", "RNA 1": "B1 RNA 1", "RNA 2": "B3 RNA 2 with U32A, A33U, U34G, C36G, G37A, A38G, G39A, A40G, G41C"}, "B23": {"name": "target 1 insA 3' of 4,insG 3' of 1 (mixed)", "RNA 1": "B1 RNA 1", "RNA 2": "GGGAAUGGAUCCACAUCUACGAAUUCGUACCAUAGAGAGGUUAUCCGCAUCAGCCGAGAUCGGAAGAGCACACGU"}, "B24": {"name": "target 1 insC 3' of 13,insU 3' of 4 (mixed)", "RNA 1": "B1 RNA 1", "RNA 2": "B5 RNA 2 with A50U"}, "B25": {"name": "target 1 insA 3' of 19,insA 3' of 3 (mixed)", "RNA 1": "B1 RNA 1", "RNA 2": "B13 RNA 2 with A31C, C32A, A33U, U34A, C51A, A52C, U53A"}, "B26": {"name": "target 1 insG 3' of 18,insG 3' of 11 (mixed)", "RNA 1": "B1 RNA 1", "RNA 2": "GGGAAUGGAUCCACAUCUACGAAUUCGUACCAUAGGAGAGGUGUAUCCGCUCACCGAGAUCGGAAGAGCACACGU"}, "B27": {"name": "target 1 A18U,U19A (mixed)", "RNA 1": "B1 RNA 1", "RNA 2": "B1 RNA 2 with U33A, A34U, U37G, G51A"}, "B28": {"name": "target 1 insC 3' of 18,insU 3' of 18 (mixed)", "RNA 1": "B1 RNA 1", "RNA 2": "B3 RNA 2 with U32A, A33U, U34A, A35C, C36U"}, "B29": {"name": "target 1 C4G,U11A (mixed)", "RNA 1": "B1 RNA 1", "RNA 2": "B1 RNA 2 with U37G, U41A, C48G, G51A"}, "B30": {"name": "target 1 G15C (mixed)", "RNA 1": "B1 RNA 1", "RNA 2": "B1 RNA 2 with U37C, G51A"}, "B31": {"name": "target 1 del4,del15 (mixed)", "RNA 1": "B1 RNA 1", "RNA 2": "GGGAAUGGAUCCACAUCUACGAAUUCGUACCAUAGAAGGUUAUCCGUCACCGAGAUCGGAAGAGCACACGU"}, "B32": {"name": "target 1 A16G,C22U (mixed)", "RNA 1": "B1 RNA 1", "RNA 2": "B1 RNA 2 with C30U, A36G, U37G, G51A"}, "B33": {"name": "target 1 insC 3' of 19,insU 3' of 12 (mixed)", "RNA 1": "B1 RNA 1", "RNA 2": "B26 RNA 2 with A34C, G35A, G43U"}}, "note": "Substitutions are numbered along the chain they refer to. Names may count otherwise."}
{"target": "T1, EsCas13d, nuclease-dead (Eubacterium siraeum, UniProt B0MS50, R295A;H300A;R849A;H854A)", "T1 sequence": "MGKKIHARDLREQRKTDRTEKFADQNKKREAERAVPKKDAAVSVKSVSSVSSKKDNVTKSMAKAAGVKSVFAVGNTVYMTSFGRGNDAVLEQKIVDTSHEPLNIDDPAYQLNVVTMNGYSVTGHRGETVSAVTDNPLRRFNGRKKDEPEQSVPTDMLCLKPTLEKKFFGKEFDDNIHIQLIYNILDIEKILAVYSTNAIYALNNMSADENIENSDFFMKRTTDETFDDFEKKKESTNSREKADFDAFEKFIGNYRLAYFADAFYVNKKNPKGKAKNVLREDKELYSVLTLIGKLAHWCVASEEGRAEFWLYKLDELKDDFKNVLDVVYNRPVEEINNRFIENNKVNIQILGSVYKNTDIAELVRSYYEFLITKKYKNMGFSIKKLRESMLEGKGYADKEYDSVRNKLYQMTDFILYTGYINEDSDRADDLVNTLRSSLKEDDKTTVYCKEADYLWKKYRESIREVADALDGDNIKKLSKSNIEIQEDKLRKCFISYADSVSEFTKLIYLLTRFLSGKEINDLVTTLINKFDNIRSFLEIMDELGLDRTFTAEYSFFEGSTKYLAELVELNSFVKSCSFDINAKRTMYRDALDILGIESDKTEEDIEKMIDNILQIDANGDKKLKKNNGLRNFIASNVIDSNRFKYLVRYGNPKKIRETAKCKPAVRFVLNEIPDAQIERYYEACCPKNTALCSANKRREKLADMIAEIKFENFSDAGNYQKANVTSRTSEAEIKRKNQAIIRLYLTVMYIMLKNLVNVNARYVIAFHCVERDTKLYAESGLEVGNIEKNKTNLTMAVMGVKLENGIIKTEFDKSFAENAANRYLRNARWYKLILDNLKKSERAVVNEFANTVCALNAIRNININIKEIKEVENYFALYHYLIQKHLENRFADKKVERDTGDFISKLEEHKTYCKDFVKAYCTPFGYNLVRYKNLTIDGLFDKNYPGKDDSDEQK", "assay": "crRNA (strand 1, pre-loaded); Mg2+; 40 mM Tris-HCl pH 7.5, 150 mM NaCl, 6 mM MgCl2, 1 mM DTT, 0.1% Tween-20, 0.2 mg/ml BSA; 25 C; 10 min per concentration, then washed", "settings": "tags: His6-TwinStrep-SUMO cleaved; N-terminal SNAP kept (SNAP-Surface 488); label: 3' end held by stalled T7 RNA polymerase", "units": {"Kd": "nM"}}
{"binder": "B1", "Kd": "23 ± 4"}
{"binder": "B2", "Kd": "65 ± 18"}
{"binder": "B3", "Kd": "52 ± 6"}
{"binder": "B4", "Kd": "70 ± 14"}
{"binder": "B5", "Kd": "4.86 ± 0.17"}
{"binder": "B6", "Kd": "16.2 ± 0.6"}
{"binder": "B7", "Kd": "68 ± 15"}
{"binder": "B8", "Kd": "13.9 ± 2.5"}
{"binder": "B9", "Kd": "14.3 ± 1.1"}
{"binder": "B10", "Kd": "91 ± 17"}
{"binder": "B11", "Kd": "9.7 ± 0.4"}
{"binder": "B12", "Kd": "28.5 ± 3.4"}
{"binder": "B13", "Kd": "15 ± 0.9"}
{"binder": "B14", "Kd": "16.1 ± 1.2"}
{"binder": "B15", "Kd": "42 ± 5"}
{"binder": "B16", "Kd": "8 ± 0.8"}
{"binder": "B17", "Kd": "9.7 ± 0.5"}
{"binder": "B18", "Kd": "4.3 ± 0.4"}
{"binder": "B19", "Kd": "11.3 ± 0.5"}
{"binder": "B20", "Kd": "19.8 ± 1.2"}
{"binder": "B21", "Kd": "10.2 ± 0.8"}
{"binder": "B22", "Kd": "68 ± 12"}
{"binder": "B23", "Kd": "5.2 ± 0.4"}
{"binder": "B24", "Kd": "8.1 ± 0.4"}
{"binder": "B25", "Kd": "16.7 ± 1"}
{"binder": "B26", "Kd": "92 ± 24"}
{"binder": "B27", "Kd": "42 ± 7"}
{"binder": "B28", "Kd": "57 ± 6"}
{"binder": "B29", "Kd": "9 ± 1"}
{"binder": "B30", "Kd": "47.2 ± 3.4"}
{"binder": "B31", "Kd": "56 ± 13"}
{"binder": "B32", "Kd": "54 ± 12"}
{"binder": "B33", "Kd": "30.6 ± 3.2"}
